Data from doi:10.1101/162842.

Target: mCardinal
Experiment: SEC + AUC

stoichiometry N: 2
Substance: mCardinal
